Data on one substance can be found in patent publication US20040001830A1.

Common to all, as to test: cell-based or functional assay
Assay [1] deals with Lipidated TF (human) (UniProt P13726).
The target of assay [2] is Recombinant human soluble TF1-209 (human) (UniProt P13726).
Assay [3] deals with Thromboplastin from human (TF source of the TF-dependent clotting assay) (human) (UniProt P13726).

Consider “FFR-rFVIIa: FVIIa blocked in the active site with D-Phe-L-Phe-L-Arg-chloromethyl ketone (from UniProt P08709 61-212) (enzyme)”, for which the IC50, inhibition of FXa generation (Assay 5; 10 pM lipidated TF, 100 pM FVIIa, 50 nM FX) in assay [1] worked out at 51 pM. Also, in assay [2], the IC50, inhibition of FVIIa/sTF amidolytic activity (Assay 4; 10 nM sTF, 10 nM FVIIa, substrate S2288) was found to be 7 nM. The IC50, TF-dependent clotting assay (Assay 7) in assay [3] was 0.0044 nM.
